Residue numbers refer to the chain shown, from its start.
Experiments:
[1] = biological target: T1, human FcγRIIb extracellular domain, His-tagged (human, UniProt P31994 43-217); assay: SPR Biacore T200, 25C, pH 7.4; FcγRIIb at 1000 nM, corrected by captured antibody
T1 construct: extracellular domain; also called hFcγR IIb
T1 sequence (looked up): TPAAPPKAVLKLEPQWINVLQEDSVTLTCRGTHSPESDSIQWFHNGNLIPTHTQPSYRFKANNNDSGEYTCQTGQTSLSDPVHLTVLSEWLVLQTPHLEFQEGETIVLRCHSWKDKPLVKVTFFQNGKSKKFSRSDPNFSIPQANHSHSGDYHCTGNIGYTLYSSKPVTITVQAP
Method: (§1) The interaction between the generated antibodies and human FcγRs was analyzed by the following method using Biacore T200. 50 mM Na-Phosphate, 150 mM NaCl, 0.05% Tween20 (pH 7.4) was used as the running buffer, and the assay was performed at 25° C. For the sensor chips, Series S SA (GE Healthcare) chips onto which CaptureSelect Human Fab-lambda Kinetics Biotin Conjugate (Thermo Fisher Scientific) was immobilized were used. The antibodies of interest were captured onto these chips and each FcγR diluted in the running buffer was allowed to interact with them. Chips were regenerated with 10 mM Glycine-HCl (pH 1.5) and 25 mM NaOH, and assay was performed by repeatedly capturing antibodies. The dissociation constants KD (mol/L) for FcγRs of each antibody were calculated using Biacore T200 Evaluation Software 2.0, using the 1:1 Langmuir binding model for FcγRIa and FcγRIIIa and the steady state affinity model for FcγRIIa. For FcγRIIb, the binding amount of FcγRIIb per unit amount of antibody was calculated by correcting the binding amount of FcγRIIb obtained from the sensorgram obtained by the measurement with the amount of antibody captured onto the chip surface.

[2] = biological target: T1, human FcγRIIb extracellular domain, …; assay: binding amount of this antibody divided by that of 04H1637-G1m/04L1610-lam1; SPR pH 7.4
Method: as §1
(§2) “Relative value to KD between G1m and hFcRn” and “Relative value to KD between G1m and hFcγRs” are values obtained by dividing the KD value of 04H1637-G1m/04L1610-lam1 for hFcRn and for each FcγR by the KD value of each variant, respectively. “Relative binding amount” indicates the value obtained by dividing the binding amount of each variant to FcγRIIb by the binding amount of 04H1637-G1m/04L1610-lam1. […] It was shown that all of the generated heterodimerized antibodies had enhanced binding to FcγRIIa and FcγRIIIa as compared with 04H1637-G1m/04L1610-lam1 which has the constant region of native human IgG1.

[3] = biological target: T2, human FcRn (human, UniProt P55899 24-290; P61769 21-119); assay: KD of 04H1637-G1m/04L1610-lam1 divided by KD of this antibody; SPR pH 6.0
T2 construct: Prepared by the method of WO 2010/107110; also called hFcRn
Method: The interaction between the generated antibodies and human FcRn was analyzed by the following method using Biacore T200. 50 mM Na-Phosphate, 150 mM NaCl, 0.05% Tween20 (pH 6.0) was used as the running buffer, and the assay was performed at 25° C. For the sensor chip, Series S SA (GE Healthcare) chips onto which CaptureSelect Human Fab-lambda Kinetics Biotin Conjugate (Thermo Fisher Scientific) was immobilized were used. The antibodies of interest were captured onto these chips and FcRn diluted in the running buffer was allowed to interact with them. Chips were regenerated with 10 mM Glycine-HCl (pH 1.5) and 25 mM NaOH, and assay was performed by repeatedly capturing antibodies. The dissociation constant for FcRn of each antibody was calculated using the steady state model, using Biacore T200 Evaluation Software 2.0.
“Relative value to KD between G1m and hFcRn” and “Relative value to KD between G1m and hFcγRs” are values obtained by dividing the KD value of 04H1637-G1m/04L1610-lam1 for hFcRn and for each FcγR by the KD value of each variant, respectively. “Relative binding amount” indicates the value obtained by dividing the binding amount of each variant to FcγRIIb by the binding amount of 04H1637-G1m/04L1610-lam1. […] It was shown that all of the generated heterodimerized antibodies had enhanced binding to FcγRIIa and FcγRIIIa as compared with 04H1637-G1m/04L1610-lam1 which has the constant region of native human IgG1. Furthermore, 04H1637-Kn462/04L1610-lam1//04H1637-H1441/04L1610-lam1, 04H1637-Kn462/04L1610-lam1//04H1637-H1445/04L1610-lam1, and 04H1637-Kn461/04L1610-lam1//04H1637-H1443/04L1610-lam1 were all shown to have enhanced binding to FcγRIIa compared to 04H1637-Kn125/04L1610-lam1//04H1637-H1076/04L1610-lam 1 which has the Fc region variant reported in WO 2013/002362.

[4] = biological target: T3, human FcγRIIa, type H, extracellular domain, His-tagged (human, UniProt P12318 34-217); assay: KD of 04H1637-G1m/04L1610-lam1 divided by KD of this antibody; SPR pH 7.4
T3 construct: extracellular domain; also called hFcγR IIa H
T3 sequence (looked up): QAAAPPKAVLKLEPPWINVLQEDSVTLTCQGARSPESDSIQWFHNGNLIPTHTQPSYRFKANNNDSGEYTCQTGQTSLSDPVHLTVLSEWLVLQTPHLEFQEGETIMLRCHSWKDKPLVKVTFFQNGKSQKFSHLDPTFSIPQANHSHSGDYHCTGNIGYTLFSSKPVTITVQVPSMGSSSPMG
Method: as §1, §2

[5] = biological target: T4, human FcγRIIIa, allotype F158, extracellular domain, His-tagged (human, UniProt P08637 17-208); assay: as above
T4 construct: extracellular domain; also called hFcγR IIIa F
Method: as §1, §2

[6] = biological target: T5, human FcγRIIa, type R, extracellular domain, His-tagged (human, UniProt P12318 34-217); assay: as above
T5 construct: extracellular domain; also called hFcγR IIa R
T5 sequence (looked up): T3 sequence (looked up) with H134R
Method: as §1, §2

[7] = biological target: T6, human FcγRIIIa, allotype V158, extracellular domain, His-tagged (human, UniProt P08637 17-208); assay: as above
T6 construct: extracellular domain; also called hFcγR IIIa V
Method: as §1, §2

[8] = biological target: T7, human FcγRIa extracellular domain, His-tagged (human, UniProt P12314 16-292); assay: as above
T7 construct: also called hFcγR Ia
Method: as §1, §2

T4 sequence (P08637 17-208): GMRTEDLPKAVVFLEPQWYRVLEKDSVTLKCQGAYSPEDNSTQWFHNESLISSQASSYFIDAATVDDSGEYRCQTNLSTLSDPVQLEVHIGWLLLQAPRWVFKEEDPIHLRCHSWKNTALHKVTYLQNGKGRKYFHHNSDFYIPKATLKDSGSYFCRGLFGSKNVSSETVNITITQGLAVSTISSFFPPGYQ
T6 sequence (P08637 17-208 F176V): as the sequence (P08637 17-208) above, with F160V counted along it
T7 sequence (P12314 16-292): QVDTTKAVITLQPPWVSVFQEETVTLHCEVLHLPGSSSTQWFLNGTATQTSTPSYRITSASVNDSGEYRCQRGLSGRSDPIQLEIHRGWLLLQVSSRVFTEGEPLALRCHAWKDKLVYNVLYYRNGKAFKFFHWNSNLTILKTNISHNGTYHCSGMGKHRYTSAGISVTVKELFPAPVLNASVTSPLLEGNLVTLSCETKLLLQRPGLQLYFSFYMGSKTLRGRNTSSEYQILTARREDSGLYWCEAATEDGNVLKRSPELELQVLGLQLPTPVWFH
T2 sequence (P55899 24-290 limits assumed, chain 1 of 2): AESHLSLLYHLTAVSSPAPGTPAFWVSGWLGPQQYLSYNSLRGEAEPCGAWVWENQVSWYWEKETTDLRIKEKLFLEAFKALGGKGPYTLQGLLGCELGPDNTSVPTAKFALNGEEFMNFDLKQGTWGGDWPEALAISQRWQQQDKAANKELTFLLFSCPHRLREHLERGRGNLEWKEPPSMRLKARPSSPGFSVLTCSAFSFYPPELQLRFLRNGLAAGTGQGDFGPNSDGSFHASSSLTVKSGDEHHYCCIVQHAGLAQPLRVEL
T2 sequence (P61769 21-119 limits assumed, chain 2 of 2): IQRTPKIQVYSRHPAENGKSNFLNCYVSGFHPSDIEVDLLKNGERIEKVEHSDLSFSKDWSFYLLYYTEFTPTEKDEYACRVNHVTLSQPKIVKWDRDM

B1: 04H1637-G1m/04L1610-lam1 (antibody, human IgG1, lambda)
heavy: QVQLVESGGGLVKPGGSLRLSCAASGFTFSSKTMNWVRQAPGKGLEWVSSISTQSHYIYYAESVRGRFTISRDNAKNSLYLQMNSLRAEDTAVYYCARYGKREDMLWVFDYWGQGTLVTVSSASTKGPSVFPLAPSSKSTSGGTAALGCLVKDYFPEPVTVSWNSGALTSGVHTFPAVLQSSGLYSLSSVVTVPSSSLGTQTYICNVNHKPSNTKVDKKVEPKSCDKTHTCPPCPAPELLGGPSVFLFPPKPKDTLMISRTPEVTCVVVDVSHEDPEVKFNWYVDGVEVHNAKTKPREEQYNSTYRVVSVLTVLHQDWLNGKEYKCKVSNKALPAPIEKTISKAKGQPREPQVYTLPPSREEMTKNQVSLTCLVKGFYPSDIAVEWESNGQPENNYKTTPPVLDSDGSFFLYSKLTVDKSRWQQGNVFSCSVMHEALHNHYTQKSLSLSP
light: QSALTQPPSASGSPGQSVTISCEGPSTGVGDYNWVHWYQQHPGKAPKLMIYFTSKKPSGVPDRFSGSKSGNTASLTVSGLQAEDEADYYCQTYAAPLGPMFGGGTKLTVLGQPKAAPSVTLFPPSSEELQANKATLVCLISDFYPGAVTVAWKADSSPVKAGVETTTPSKQSNNKYAASSYLSLTPEQWKSHRSYSCQVTHEGSTVEKTVAPTECS
B1 was tested, and the Binding amount [1] was 0.008 RU per RU of captured antibody, the Relative binding amount [2] was 1 ratio and the “Relative value to KD between G1m and hFcRn” value [3] was 1 ratio. The “Relative value to KD between G1m and hFcγRs” value [4] was 1 ratio, the “Relative value to KD between G1m and hFcγRs” value [5] was 1 ratio and the “Relative value to KD between G1m and hFcγRs” value [6] was 1 ratio. For the same binder, the “Relative value to KD between G1m and hFcγRs” value [7] was 1 ratio and the “Relative value to KD between G1m and hFcγRs” value [8] was 1 ratio.

B2: 04H1637-Kn462/04L1610-lam1//04H1637-H1441/04L1610-lam1 (antibody, human IgG1, lambda)
heavy 1: QVQLVESGGGLVKPGGSLRLSCAASGFTFSSKTMNWVRQAPGKGLEWVSSISTQSHYIYYAESVRGRFTISRDNAKNSLYLQMNSLRAEDTAVYYCARYGKREDMLWVFDYWGQGTLVTVSSASTKGPSVFPLAPSSKSTSGGTAALGCLVKDYFPEPVTVSWNSGALTSGVHTFPAVLQSSGLYSLSSVVTVPSSSLGTQTYICNVNHKPSNTKVDKKVEPKSCDKTHTCPPCPAPEFQWGPMVFLFPPKPKDVLMISRTPEVTCVVVDVSDEEPEVKFNWYVDGVEVHNAKTKPREEQYNATYRVVSVLPVLHQDWLNGKEYKCKVSNDALPAPIEKTISKAKGQPREPQVCTLPPSRDELTKNQVSLWCLVKGFYPSDIAVEWESNGQPENNYKTTPPVLDSDGSFFLYSKLTVDKSRWQQGNVFSCSVMHEALHNHYTQKSLSLSP
heavy 2: QVQLVESGGGLVKPGGSLRLSCAASGFTFSSKTMNWVRQAPGKGLEWVSSISTQSHYIYYAESVRGRFTISRDNAKNSLYLQMNSLRAEDTAVYYCARYGKREDMLWVFDYWGQGTLVTVSSASTKGPSVFPLAPSSKSTSGGTAALGCLVKDYFPEPVTVSWNSGALTSGVHTFPAVLQSSGLYSLSSVVTVPSSSLGTQTYICNVNHKPSNTKVDKKVEPKSCDKTHTCPPCPAPELLAGPSVFLFPPKPKDVLMISRTPEVTCVVVDVSHEEPEVKFNWYVDGVEVHNAKTKPREEQYNATYRVVSVLPVLHQDWLNGKEYKCKVSNDALPAPIEETISKAKGQPREPQVYTLPPSRCELTKNQVSLSCAVKGFYPSDIAVEWESNGQPENNYKTTPPVLDSDGSFFLVSKLTVDKSRWQQGNVFSCSVMHEALHNHYTQKSLSLSP
light: B1 light
notes: Heterodimerized IgG1 Fc variant; also called 04H1637-Kn462/04L1610-lam1//04H1637-Hl441/04L1610-lam1
B2 was tested, and the Binding amount [1] was 0.013 RU per RU of captured antibody, the Relative binding amount [2] was 1.6 ratio and the “Relative value to KD between G1m and hFcγRs” value [4] was 20.9 ratio. The “Relative value to KD between G1m and hFcγRs” value [5] was 79.5 ratio, the “Relative value to KD between G1m and hFcγRs” value [6] was 9.2 ratio and the “Relative value to KD between G1m and hFcγRs” value [7] was 45.8 ratio. The “Relative value to KD between G1m and hFcγRs” value [8] was 0.3 ratio.

B3: 04H1637-Kn462/04L1610-lam1//04H1637-H1445/04L1610-lam1 (antibody, human IgG1, lambda)
heavy 1: B2 heavy 1
heavy 2: B2 heavy 2 with A335K, I337D
light: B1 light
notes: Heterodimerized IgG1 Fc variant; also called 04H1637-Kn462/04L1610-lam1//04H1637-Hl445/04L1610-lam1
With B3 the Binding amount [1] was 0.03 RU per RU of captured antibody, the Relative binding amount [2] was 3.7 ratio and the “Relative value to KD between G1m and hFcγRs” value [4] was 37.5 ratio. The “Relative value to KD between G1m and hFcγRs” value [5] was 382 ratio, the “Relative value to KD between G1m and hFcγRs” value [6] was 18.7 ratio and the “Relative value to KD between G1m and hFcγRs” value [7] was 131 ratio. For the same binder, the “Relative value to KD between G1m and hFcγRs” value [8] was 0.6 ratio.

B4: 04H1637-Kn461/04L1610-lam1//04H1637-H1443/04L1610-lam1 (antibody, human IgG1, lambda)
heavy 1: B2 heavy 1 with I337E
heavy 2: B2 heavy 2 with I337E
light: B1 light
notes: Heterodimerized IgG1 Fc variant; also called 04H1637-Kn461/04L1610-lam1//04H1637-Hl443/04L1610-lam1
B4 was tested, and the Binding amount [1] was 0.025 RU per RU of captured antibody, the Relative binding amount [2] was 3.1 ratio and the “Relative value to KD between G1m and hFcγRs” value [4] was 11.1 ratio. The “Relative value to KD between G1m and hFcγRs” value [5] was 616 ratio, the “Relative value to KD between G1m and hFcγRs” value [6] was 10.7 ratio and the “Relative value to KD between G1m and hFcγRs” value [7] was 226 ratio. For the same binder, the “Relative value to KD between G1m and hFcγRs” value [8] was 1.2 ratio.

B5: 04H1637-Kn125/04L1610-lam1//04H1637-H1076/04L1610-lam1 (antibody, human IgG1, lambda)
heavy 1: B2 heavy 1 with F239Y, V255T, P312T, D331K
heavy 2: B2 heavy 2 with A241G, V255T, A303S, P312T, A335M
light: B1 light
notes: Heterodimerized IgG1 with the Fc variant of WO 2013/002362; also called 04H1637-Kn125/04L1610-lam1//04H1637-Hl076/04L1610-lam1
In the case of B5, the Binding amount [1] is reported as 0.007 RU per RU of captured antibody, the Relative binding amount [2] is reported as 0.9 ratio and the “Relative value to KD between G1m and hFcγRs” value [4] is reported as 3.6 ratio. For the same binder, the “Relative value to KD between G1m and hFcγRs” value [5] was 406 ratio, the “Relative value to KD between G1m and hFcγRs” value [6] was 1.6 ratio and the “Relative value to KD between G1m and hFcγRs” value [7] was 126 ratio. For the same binder, the “Relative value to KD between G1m and hFcγRs” value [8] was 1.2 ratio.
